Reference: PMC5580658
Where a chain is given by its changes, count along the chain named.

B1: mutS leader ARN3* (structured_RNA)
RNA: GGUGCGCCUUAUGUGAUUACAACGAAAAUAAAAACCAUCACACCCCAUUUAAUAUCAGGGAACCGGACAUAACCCCAUGAGUGCCAUCGAGAAUUUCGACGCCCAU
B2: mutS leader ARN1* (structured_RNA)
RNA: B1 RNA with A27C, A28G, A31U, A33U, C85A, C88A, G91A

Legend:
Hfq [1] = target: T1, Hfq (Escherichia coli, UniProt P0A6X3 1-102); test: EMSA
Hfq [2] = target: T1, Hfq; test: EMSA; remark: listed apart in the source

T1 sequence (P0A6X3 whole entry): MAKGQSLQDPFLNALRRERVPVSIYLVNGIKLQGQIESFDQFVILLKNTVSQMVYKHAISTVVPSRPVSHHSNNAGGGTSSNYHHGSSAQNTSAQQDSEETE

Binder	Kd (Hfq [1]) [µM]	binding signal (Hfq [2])
B1	~0.019	
B2		~3 fold lower affinity than WT
